From PMC4230899, “Diverse allosteric and catalytic functions of tetrameric D-lactate dehydrogenases from three Gram-negative bacteria” (AMB Express, 2014)

What was measured:
ECLDH [1] = molecular target: T1, ECLDH (Escherichia coli, UniProt P52643); test: NADH absorbance at […] nm, activation of pyruvate reduction, Hill fit; assay type: biochemical; conditions: slight activator, half-saturation for activation; 7.5 mM pyruvate, 0.1 mM NADH; 50 mM Bicine-NaOH pH 8.0; 30 °C; read-out: S 0.5
T1 construct: gene ldhA
T1 sequence (P52643 1-329): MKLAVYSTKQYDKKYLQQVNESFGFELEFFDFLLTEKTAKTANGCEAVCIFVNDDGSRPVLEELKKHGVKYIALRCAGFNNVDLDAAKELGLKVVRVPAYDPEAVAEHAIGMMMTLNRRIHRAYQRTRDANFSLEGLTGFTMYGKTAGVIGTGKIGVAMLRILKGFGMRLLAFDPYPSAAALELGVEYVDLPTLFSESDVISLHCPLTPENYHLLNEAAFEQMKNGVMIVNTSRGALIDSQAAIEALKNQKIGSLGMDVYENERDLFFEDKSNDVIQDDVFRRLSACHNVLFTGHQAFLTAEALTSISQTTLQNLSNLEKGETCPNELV

ECLDH [2] = molecular target: T1, ECLDH; test: NADH absorbance at […] nm, pyruvate reduction, nonlinear regression; assay type: biochemical
PALDH = molecular target: T2, PALDH (Pseudomonas aeruginosa, UniProt Q9I530); test: as above; assay type: biochemical
T2 construct: gene ldhA
T2 sequence (Q9I530 1-329): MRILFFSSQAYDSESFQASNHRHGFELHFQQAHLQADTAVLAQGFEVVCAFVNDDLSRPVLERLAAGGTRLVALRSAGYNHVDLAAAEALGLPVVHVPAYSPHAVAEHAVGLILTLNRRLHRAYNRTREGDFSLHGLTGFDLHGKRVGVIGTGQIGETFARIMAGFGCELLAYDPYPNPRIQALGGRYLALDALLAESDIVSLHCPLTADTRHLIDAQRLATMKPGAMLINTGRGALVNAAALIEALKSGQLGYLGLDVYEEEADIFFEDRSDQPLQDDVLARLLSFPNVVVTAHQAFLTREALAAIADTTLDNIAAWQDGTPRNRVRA

FNLDH = molecular target: T3, FNLDH (Fusobacterium nucleatum, UniProt Q8RG11); test: as above; assay type: biochemical
T3 construct: gene FN0511
T3 sequence (Q8RG11 1-335): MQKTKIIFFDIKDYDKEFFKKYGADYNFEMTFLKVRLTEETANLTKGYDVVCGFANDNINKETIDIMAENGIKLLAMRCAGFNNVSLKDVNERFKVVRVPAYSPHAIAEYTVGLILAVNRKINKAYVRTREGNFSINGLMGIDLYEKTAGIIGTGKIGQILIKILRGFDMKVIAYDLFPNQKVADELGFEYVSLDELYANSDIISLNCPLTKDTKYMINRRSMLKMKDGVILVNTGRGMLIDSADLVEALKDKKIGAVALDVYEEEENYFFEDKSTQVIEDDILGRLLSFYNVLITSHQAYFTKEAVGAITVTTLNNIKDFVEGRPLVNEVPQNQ

[3] = molecular target: NAD-dependent D-lactate dehydrogenase from Pseudomonas aeruginosa (Pseudomonas aeruginosa JCM8532 (=PAO1)); test: SEC; Superdex 200 (Hiload 16/60), 1 ml of 1 mg/ml protein, 50 mM sodium acetate pH 5.0 with 150 mM NaCl; calibrated with standard proteins; apparent molecular weight against theoretical subunit weight
[4] = molecular target: the molecule itself; test: SEC; Superdex 200 (Hiload 16/60), 1 ml of 1 mg/ml protein, 50 mM HEPES-NaOH pH 8.0 with 150 mM NaCl; calibrated with standard proteins; apparent molecular weight against theoretical subunit weight
purified protein [5] = substrate: NC(=O)C1=CN([C@@H]2O[C@H](COP(=O)(O)OP(=O)(O)OC[C@H]3O[C@@H](n4cnc5c(N)ncnc54)[C@H](O)[C@@H]3O)[C@@H](O)[C@H]2O)C=CC1; test: purified protein; assay type: biochemical, Escherichia coli; conditions: saturating pyruvate, pH 7.0, 30 °C, no effector, apparent, varied: cofactor
purified protein [6] = substrate: CC(=O)C(=O)O; test: purified protein; assay type: biochemical, Escherichia coli; conditions: 0.1 mM NADH, pH 7.0, 30 °C, no effector, Hill fit
purified protein [7] = substrate: O=CC(=O)O; test: purified protein; assay type: biochemical, Escherichia coli; conditions: 0.1 mM NADH, pH 7.0, 30 °C, Hill fit
purified protein [8] = substrate: O=C(O)C(=O)CO; test: purified protein; assay type: biochemical, Escherichia coli; conditions: 0.1 mM NADH, pH 7.0, 30 °C
purified protein [9] = substrate: NC(=O)C1=CN([C@@H]2O[C@H](COP(=O)(O)OP(=O)(O)OC[C@H]3O[C@@H](n4cnc5c(N)ncnc54)[C@H](O)[C@@H]3O)[C@@H](O)[C@H]2O)C=CC1; test: purified protein; assay type: biochemical, Fusobacterium nucleatum; conditions: saturating pyruvate, pH 7.0, 30 °C, no effector, apparent, varied: cofactor
purified protein [10] = substrate: CC(=O)C(=O)O; test: purified protein; assay type: biochemical, Fusobacterium nucleatum; conditions: 0.1 mM NADH, pH 7.0, 30 °C, no effector
purified protein [11] = substrate: CCCC(=O)C(=O)O; test: purified protein; assay type: biochemical, Fusobacterium nucleatum; conditions: 0.1 mM NADH, pH 7.0, 30 °C
purified protein [12] = substrate: O=C(O)CC(=O)C(=O)O; test: purified protein; assay type: biochemical, Fusobacterium nucleatum; conditions: 0.1 mM NADH, pH 7.0, 30 °C, fit with substrate inhibition
purified protein [13] = substrate: CCC(=O)C(=O)O; test: purified protein; assay type: biochemical, Fusobacterium nucleatum; conditions: 0.1 mM NADH, pH 7.0, 30 °C
purified protein [14] = substrate: NC(=O)C1=CN([C@@H]2O[C@H](COP(=O)(O)OP(=O)(O)OC[C@H]3O[C@@H](n4cnc5c(N)ncnc54)[C@H](O)[C@@H]3O)[C@@H](O)[C@H]2O)C=CC1; test: purified protein; assay type: biochemical, Pseudomonas aeruginosa; conditions: saturating pyruvate, pH 7.0, 30 °C, no effector, apparent, varied: cofactor
purified protein [15] = substrate: CC(=O)C(=O)O; test: purified protein; assay type: biochemical, Pseudomonas aeruginosa; conditions: 0.1 mM NADH, pH 7.0, 30 °C, no effector, fit with substrate inhibition
purified protein [16] = substrate: O=C(O)CC(=O)C(=O)O; test: purified protein; assay type: biochemical, Pseudomonas aeruginosa; conditions: 0.1 mM NADH, pH 7.0, 30 °C
purified protein [17] = substrate: O=C(O)C(=O)CO; test: purified protein; assay type: biochemical, Pseudomonas aeruginosa; conditions: 0.1 mM NADH, pH 7.0, 30 °C, fit with substrate inhibition
purified protein [18] = substrate: CCC(=O)C(=O)O; test: purified protein; assay type: biochemical, Pseudomonas aeruginosa; conditions: 0.1 mM NADH, pH 7.0, 30 °C

In the case of O=P(O)(O)OC[C@H]1OC(O)(COP(=O)(O)O)[C@@H](O)[C@@H]1O (stereo partly shown) [FBP], the EC50 (ECLDH [1]) is reported as 1.3 mM.

In the case of NC(=O)C(=O)O [Oxamate], the Ki (ECLDH [2]) is reported as 20 ± 2 mM, the Ki (PALDH) is reported as 0.29 ± 0.04 mM and the Ki (FNLDH) is reported as 9.4 ± 0.2 mM.

Work on “NAD-dependent D-lactate dehydrogenase from Pseudomonas aeruginosa (enzyme)” yielded a stoichiometry N [3] of 3.

B1: NAD-dependent D-lactate dehydrogenase from Escherichia coli (enzyme, E. coli BL21(DE3), UniProt P52643 1-329, looked up)
chain: T1 sequence (P52643 1-329)
notes: gene amplified from genomic DNA with primers from the start codon to the stop codon; theoretical molecular weight printed as 38.5 kDa; No removal of the vector's tag is described; the printed theoretical mass (38.5 kDa) may include the leader of pCold I (surmise); A second peak at the position of an octamer was seen and put down as a likely artefact of overexpression; also called ECLDH; …
B1 was tested, and the “stoichiometry N” value [4] was 4, the K0.5 (purified protein [5]) was 0.055 (0.004) mM and the kcat (purified protein [5]) was 640 s⁻¹. The kcat/Km (purified protein [5]) was 1.2e+07 M⁻¹ s⁻¹, the K0.5 (purified protein [6]) was 2.6 (0.09) mM and the kcat (purified protein [6]) was 410 s⁻¹. The kcat/Km (purified protein [6]) was 160000 M⁻¹ s⁻¹, the K0.5 (purified protein [7]) was 20 (2) mM and the kcat (purified protein [7]) was 100 s⁻¹. For the same molecule, the kcat/Km (purified protein [7]) was 5300 M⁻¹ s⁻¹, the K0.5 (purified protein [8]) was 12 (0.3) mM and the kcat (purified protein [8]) was 50 s⁻¹. For the same molecule, the kcat/Km (purified protein [8]) was 4200 M⁻¹ s⁻¹.

B2: NAD-dependent D-lactate dehydrogenase from Fusobacterium nucleatum subsp. nucleatum (enzyme, UniProt Q8RG11 1-335, looked up)
chain: T3 sequence (Q8RG11 1-335)
notes: FN0511 protein (FNLDH), NAD-dependent D-lactate dehydrogenase of Fusobacterium nucleatum subsp. nucleatum JCM14847 (=ATCC25586); gene amplified from genomic DNA with primers from the start codon to the stop codon; theoretical molecular weight printed as 40.0 kDa; No removal of the vector's tag is described; the printed theoretical mass (40.0 kDa) may include the leader of pCold I (surmise); The …
B2 was tested, and the “stoichiometry N” value [4] was 4, the K0.5 (purified protein [9]) was 0.022 (0.0005) mM and the kcat (purified protein [9]) was 98 s⁻¹. The kcat/Km (purified protein [9]) was 4.4e+06 M⁻¹ s⁻¹, the K0.5 (purified protein [10]) was 0.34 (0.007) mM and the kcat (purified protein [10]) was 80 s⁻¹. For the same molecule, the kcat/Km (purified protein [10]) was 230000 M⁻¹ s⁻¹, the K0.5 (purified protein [11]) was 0.68 (0.01) mM and the kcat (purified protein [11]) was 140 s⁻¹. For the same molecule, the kcat/Km (purified protein [11]) was 200000 M⁻¹ s⁻¹, the K0.5 (purified protein [12]) was 2.5 (0.09) mM and the kcat (purified protein [12]) was 80 s⁻¹. For the same molecule, the kcat/Km (purified protein [12]) was 31000 M⁻¹ s⁻¹, the K0.5 (purified protein [13]) was 0.31 (0.006) mM and the kcat (purified protein [13]) was 140 s⁻¹. The kcat/Km (purified protein [13]) was 440000 M⁻¹ s⁻¹.

B3: PALDH (Pseudomonas aeruginosa PAO1) (protein)
chain: T2 sequence (Q9I530 1-329)
For B3, the K0.5 (purified protein [14]) was 0.019 (0.0005) mM, the kcat (purified protein [14]) was 310 s⁻¹ and the kcat/Km (purified protein [14]) was 1.7e+07 M⁻¹ s⁻¹. For the same molecule, the K0.5 (purified protein [15]) was 0.10 (0.009) mM, the kcat (purified protein [15]) was 400 s⁻¹ and the kcat/Km (purified protein [15]) was 4e+06 M⁻¹ s⁻¹. For the same molecule, the K0.5 (purified protein [16]) was 1.7 (0.06) mM, the kcat (purified protein [16]) was 410 s⁻¹ and the kcat/Km (purified protein [16]) was 230000 M⁻¹ s⁻¹. For the same molecule, the K0.5 (purified protein [17]) was 3.0 (0.2) mM, the kcat (purified protein [17]) was 420 s⁻¹ and the kcat/Km (purified protein [17]) was 140000 M⁻¹ s⁻¹. For the same molecule, the K0.5 (purified protein [18]) was 0.64 (0.01) mM, the kcat (purified protein [18]) was 100 s⁻¹ and the kcat/Km (purified protein [18]) was 150000 M⁻¹ s⁻¹.
